According to patent US7060670B1, “Stereoselective antifibrillogenic peptides and peptidomimetics thereof” (Neurochem (International) Limited, priority 1999, dated 2006):
No end group written: not given here.

Columns and labels:
Assay type in all cases: biochemical
[1] = target: T1, Aβ(1–40) (Homo sapiens, UniProt P05067); assay: thioflavin T fluorescence assay for fibrillogenesis of Aβ(1–40)
T1 construct: Aβ (1–40) 95% purity (American Peptide Company); purchased American Peptide Company, Inc 62-0-78
From the text: The thioflavin T fluorescence assay for fibrillogenesis is based on the principle that the fluorescent dye, thioflavin T, binds specifically to fibrillar, but not to unaggregated Aβ peptide (LeVine III, H., 1993, Protein Science 2:404–410). Upon binding, thioflavin T develops a characteristic fluorescence (Naiki, H., et al., 1996, Lab. Invest. 74: 374–383) which can be easily detected. The dye is believed to interact with the stacked cross-β pleated sheets, the common structural motif of all amyloids (LeVine III, H., 1995, Amyloid: Int. J. Exp. Clin Invest. 2:1.6). Thioflavin T is widely used to assay the effect of compounds on Aβ peptide fibrillogenesis (Bronfman, P. C., et al., 1995, Neuroscience Lett. 218:201–203). In this assay test compounds are incubated with a solution of Aβ(1–40) (20 μM) containing 10 μM thioflavin T, in 0.02M Tris/0.02M acetate/0.15M NaCl/0.005% azide/pH 7.40 at 37° C. in sealed 384 well microplates. Readings (ex 430 nm/em 485 nm) are taken at various time intervals with a microplate fluorescence reader. An increase in fluorescence signifies the appearance of amyloid or intermediates in the production of amyloid. Inhibitors of fibrillogenesis will lead to less fluorescence production. The results illustrated in Table 1 below, are based on the fluorescence production in the presence of test peptides at either 20 μM or 80 μM concentration, at the time intervals of 5, 19, 45, 67, 77 and 90 hours, compared to a control, buffer alone, without added inhibitory peptide. Protocol Aβ peptide: Aβ (1–40) 95% purity (American Peptide Company, Inc, Sunnyvale, Cal. USA, cat. 62-0-78) is disaggregated in trifluoroacetic acid and filtered through a […] filter, (Whatman Anotop 25 plus, 0.02 μm, Catalogue no. 6809 4102) in hexafluoroisopropanol (HFIP). Solutions of Aβ (1–40) at 600 μM in HFIP are stored at −80° C. Assay mixture: The mixture is prepared as two solutions that are combined upon addition to the 384 well microplate (Corning Costar cat. 3705). • i) Solution A consists of test peptides in 0.02M Tris/0.02M acetate/0.15M NaCl/0.01% azide at pH 7.40 or buffer alone (control), • ii) Solution B consists of Aβ(1–40) 40 μM, thioflavin T 20 μM in 0.02M Tris/0.02M acetate/0.15M NaCl at pH 7.40. This solution is prepared by drying the Aβ peptide under nitrogen and then resuspending this in 0.04M Tris base with 15 minutes sonication. An equal volume of 0.04M acetic acid containing 0.3 M NaCl is added and the solution is adjusted to pH 7.40±0.02. A small volume of 5 mM thioflavin T is added to the solution to give a final 20 μM concentration of thioflavin T. • iii) The microplate is loaded with 40 μL of solution A followed by 40 μL of solution B which gives a final 20 μM Aβ(1–40), 10 μM thioflavin T, and either 20 μM, 80 μM or 100 μM test compound in 0.02M Tris/0.02M acetate/0.15M NaCl/0.005% azide, pH 7.40. The plate is sealed and loaded into the microplate fluorescence reader. Fluorescence measurement data analysis: The HTS-7000 Bio Assay Reader, Perkin Elmer, is used to perform kinetic runs of about 5 days. Readings were taken at various time intervals, 5, 19, 45, 67, 77 and 90 hours, with one minute shaking before each reading. Bandpass filters used were: excitation 430 nm, emission […]. Calculations The rank order of efficacy of the peptides is determined by observing which peptides allow the appearance of fluorescence, above the background level, first. For example in the presence of buffer control alone, fluorescence appears earlier than when any of the peptides is present.

[2] = tested on: all-[D]-Aβ (1–40); assay: thioflavin T fluorescence assay for fibril formation by [D]-Aβ (1–40); conditions: FIG. 3
[3] = target: T2, Aβ40 (Homo sapiens, UniProt P05067); assay: electron microscopy of peptide/Aβ40 mixture; conditions: mixture of peptide and Aβ40
T2 construct: when incubated with Aβ40 under physiological conditions
From the text: (§1) It is the understanding of the inventors that this interesting observation will lead to a greater understanding of fibrillogenesis of Aβ40 and Aβ42 peptides and as a result, will provide important information for the design of potent anti-fibrillogenic compounds for Aβ, other amyloidotic peptides such as AA, AL and IAPP for the treatment of diseases such as Alzheimer's, Type II Diabetes and amyloidosis related disorders. The same principle can also be applied to the design of peptide type compounds for the inhibition of binding of various chemokines to the cell surface as well as inhibition of self assembly and cellular adherence of prion proteins.

[4] = target: T2, Aβ40; assay: CD spectrum of Aβ40 incubated with peptide (β-sheet content)
From the text: as §1

[5] = target: Aβ (Homo sapiens, UniProt P05067); assay: Aβ-NBD environmental probe fibrillogenesis assay; conditions: in vitro
Sequence of Aβ (P05067 672-711 limits assumed): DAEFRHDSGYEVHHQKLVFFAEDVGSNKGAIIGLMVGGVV

T1 sequence (P05067 672-711 limits assumed): as above
T2 sequence (P05067 672-711 limits assumed): as above

Row | Substance | Order Of Potency of Peptide Inhibitors, Tested at 20 μM ([1]; rank, 1 = strongest activity, 11 = weakest, peptide 20 μM, Aβ(1–40) 20 μM, by first appearance of fluorescence over 5-90 hours) | Order Of Potency of Peptide Inhibitors, Tested at 80 μM ([1]; rank, 1 = strongest activity, 11 = weakest, peptide 80 μM, Aβ(1–40) 20 μM, by first appearance of fluorescence over 5-90 hours) | inhibition of all-[D]-Aβ (1–40) assembly compared with the opposite stereoisomer [2] | fibrils seen by electron microscopy [3] | β-sheet content of Aβ40 by CD spectrum after 24 hours incubation ([4]; 24 hours) | β-sheet content of Aβ40 by CD spectrum at time t=0 ([4]; physiological conditions, t=0) | anti-fibrillogenic activity in thioflavin-T based fluorescence assay ([1]; in vitro) | anti-fibrillogenic activity in NBD based fluorescence assay [5]
1 | KLVFFA [reference compound] | 8 (L) KLVFFA | 8 (L) KLVFFA | more potent inhibitor | – | – | – | – | –
2 | KVDDQD [hexapeptide] | – | – | – | failed to show any fibrils | dramatic increase | increase | confirm this finding | confirm this finding
